Test results reported in article PMC6625514.

Biological target: CD71 (transferrin receptor), used in ELISA (UniProt P02786 89-760)
Assay: ELISA

Sequence of CD71 (transferrin receptor), used in ELISA (P02786 89-760): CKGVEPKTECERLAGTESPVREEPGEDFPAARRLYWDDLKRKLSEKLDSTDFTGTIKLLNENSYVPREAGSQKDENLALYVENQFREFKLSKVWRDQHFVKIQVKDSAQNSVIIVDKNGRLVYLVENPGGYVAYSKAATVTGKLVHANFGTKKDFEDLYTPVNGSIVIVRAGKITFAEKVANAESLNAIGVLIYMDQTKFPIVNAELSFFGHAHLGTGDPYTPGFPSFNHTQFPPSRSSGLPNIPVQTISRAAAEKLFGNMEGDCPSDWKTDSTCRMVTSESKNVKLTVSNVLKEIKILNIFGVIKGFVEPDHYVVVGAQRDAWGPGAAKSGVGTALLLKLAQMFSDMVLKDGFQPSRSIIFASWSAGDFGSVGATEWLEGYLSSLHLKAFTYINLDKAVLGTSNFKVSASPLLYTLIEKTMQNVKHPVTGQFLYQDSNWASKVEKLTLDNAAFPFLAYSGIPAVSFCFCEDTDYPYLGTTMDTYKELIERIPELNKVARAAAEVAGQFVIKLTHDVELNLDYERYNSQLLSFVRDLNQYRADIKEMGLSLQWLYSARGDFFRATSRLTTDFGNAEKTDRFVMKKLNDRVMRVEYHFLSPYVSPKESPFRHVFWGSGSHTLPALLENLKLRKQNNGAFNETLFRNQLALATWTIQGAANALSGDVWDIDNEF

B1: XQ-2d (ssDNA)
DNA: ACTCATAGGGTTAGGGGCTGCTGGCCAGATACTCAGATGGTAGGGTTACTATGAGC
Kd: 50.5 ± 27.3 nM
